Reference: patent US20230235054A1 (BIOATLA, published 2023)

Columns and labels:
cynoNectin4-mFc [1] = biological target: T1, cynoNectin4-mFc (cyno, UniProt A0A2K5WES1 32-349); assay: SPR, cynoNectin4-mFc immobilized, pH 7.4
T1 construct: Immobilized on the SPR chip; also called cyanoNectin4; not shown: mFc (mouse Fc)
T1 sequence: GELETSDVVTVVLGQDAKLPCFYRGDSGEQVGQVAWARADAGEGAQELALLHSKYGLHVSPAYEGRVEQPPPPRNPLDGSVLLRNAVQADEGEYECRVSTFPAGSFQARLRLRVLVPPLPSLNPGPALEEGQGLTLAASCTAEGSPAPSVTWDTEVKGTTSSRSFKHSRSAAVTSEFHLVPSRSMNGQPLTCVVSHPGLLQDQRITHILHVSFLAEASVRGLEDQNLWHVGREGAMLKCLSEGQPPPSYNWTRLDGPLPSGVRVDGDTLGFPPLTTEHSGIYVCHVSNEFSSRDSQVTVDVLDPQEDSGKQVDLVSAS
Description: (§1) Binding kinetics of anti-Nectin4 antibodies were measured by surface plasmon resonance using a SPR2/4 instrument (Sierra Sensors, Hamburg, Germany) and flat amine sensor chips. The SPR sensor contained four flow cells (FC1-FC4), each of which was addressed individually or in groups. huNectin4-His was immobilized in FC2, and cynoNectin4-mFc in FC4. No protein was immobilized in FC1 and FC3 which were used as control surfaces for FC2 and FC4, respectively.
(§2) All injections were done at a flow rate of 25 μL/min at 25° C. The sensor surface was activated with 1-ethyl-3-(3-dimethylaminopropyl)-carbodiimide (EDC) and N-hydroxysuccinimide (NHS) (200 mM/50 mM) for 480 seconds. HuNectin4-His (2 μg/mL in 10 mM NaAc, pH4.5) was injected for 480s and the surface was inactivated by injecting 1M ethanolamine-HCl for 480s. CynoNectin4 was immobilized using the same conditions as described for huNectin4-His, except that the cynoNectin4 was diluted into 10 mM NaAc buffer having pH 5.0. The control surface was activated and deactivated using the same conditions, but without injecting protein. PBST buffer (PBS pH 7.4 with 0.05% TWEEN20™) was used as running buffer for the surface preparation. The running solution was switched to PBST with 30 mM sodium bicarbonate with the pH adjusted as indicated in the figures before the analyte injections. The instrument was equilibrated with the running solution for one hour before the first analyte injection.
(§3) The off-rate was measured for 360s. The chip surface was regenerated after each cycle of interaction analysis by injecting 6 μL of 10 mM glycine (pH 2.0). Flow cells 1 and 3 without immobilized protein were used as control surfaces for reference subtraction.

cynoNectin4-mFc [2] = biological target: T1, cynoNectin4-mFc; assay: SPR, cynoNectin4-mFc immobilized, pH 6.5
Description: as §1, §2, §3

cyno Nectin-4 on cells = biological target: T2, cyno Nectin-4 on cells (cyno, UniProt A0A2K5WES1 32-510); assay: FACS, HEK293 cells expressing cyno Nectin-4
T2 construct: whole, on cells; also called HEK293 cells expressing cyno Nectin-4; cyno Nectin-4 cells
T2 sequence: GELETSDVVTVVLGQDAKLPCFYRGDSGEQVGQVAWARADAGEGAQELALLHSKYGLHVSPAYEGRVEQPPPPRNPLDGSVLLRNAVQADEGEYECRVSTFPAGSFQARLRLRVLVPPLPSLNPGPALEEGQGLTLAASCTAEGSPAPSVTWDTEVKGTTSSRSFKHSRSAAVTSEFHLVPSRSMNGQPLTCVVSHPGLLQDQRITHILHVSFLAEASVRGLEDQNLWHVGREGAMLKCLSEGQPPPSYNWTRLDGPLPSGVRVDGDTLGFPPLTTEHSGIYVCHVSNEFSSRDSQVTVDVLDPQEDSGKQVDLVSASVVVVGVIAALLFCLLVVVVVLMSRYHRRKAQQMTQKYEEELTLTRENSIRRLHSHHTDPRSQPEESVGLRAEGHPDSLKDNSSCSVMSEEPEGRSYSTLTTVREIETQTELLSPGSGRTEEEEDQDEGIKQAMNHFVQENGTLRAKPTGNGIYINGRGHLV

[3] = biological target: T3, recombinant human Nectin4 antigen (human, UniProt Q96NY8 32-349); assay: pH range ELISA, 30 ng/mL, pH of 50% binding activity
T3 construct: construct not described
T3 sequence (looked up): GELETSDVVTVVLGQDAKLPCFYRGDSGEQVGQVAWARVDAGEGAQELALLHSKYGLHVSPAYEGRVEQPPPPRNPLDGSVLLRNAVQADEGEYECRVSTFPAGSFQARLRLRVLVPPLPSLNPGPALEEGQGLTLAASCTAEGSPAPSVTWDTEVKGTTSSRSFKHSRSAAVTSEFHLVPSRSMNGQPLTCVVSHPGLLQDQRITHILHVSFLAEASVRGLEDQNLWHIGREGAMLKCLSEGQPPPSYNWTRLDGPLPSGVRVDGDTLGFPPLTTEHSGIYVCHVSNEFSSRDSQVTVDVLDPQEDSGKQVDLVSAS
Description: 1) Coat ELISA plates with 100 μL of 1 μg/mL recombinant human Nectin4 antigen in carbonate-bicarbonate coating buffer [0462] 2) Cover plates with sealing film and incubate overnight at 4° C. […] 3) Decant plates and tap out residual liquid on a stack of paper towels [0464] 4) Wash wells twice by dispensing 200 μL of various pH incubation buffer to the wells and completely aspirate the contents [0465] 5) Add 200 μL of various pH incubation buffers (pH5.5, 6.0, 6.2, 6.5, 6.7, 7.0 and 7.4) to the wells. Cover with sealing film and place the plate onto a plate shaker (set to 200 rpm) for 60 minutes at room temperature [0466] 6) Decant plates and tap out residual liquid on a stack of paper towels [0467] 7) Serially dilute test substances in various pH incubation buffers (pH5.5, 6.0, 6.2, 6.5, 6.7, 7.0 and 7.4) to 30 ng/mL [0468] 8) Add 100 μL/well of diluted test substances to the plates [0469] 9) Cover with sealing film and place the plates onto a plate shaker (set to 200 rpm) for 60 minutes at room temperature. [0470] 10) Decant plates and tap out residual liquid on a stack of paper towels. […] 12) Dilute the HRP secondary antibody at 1:2500 in various pH incubation buffers (pH5.5, 6.0, 6.2, 6.5, 6.7, 7.0 and 7.4) [0473] 13) Add 100 μL HRP secondary antibody diluted in various pH incubation buffers (pH5.5, 6.0, 6.2, 6.5, 6.7, 7.0 and 7.4) to each well. […] 14) Cover with sealing film and place the plates onto a plate shaker (set to 200 rpm) for 60 minutes at room temperature. [0475] 15) Decant plates and tap out residual liquid on a stack of paper towels. […] 16) Wash wells three times by dispensing 200 μL of various pH wash buffer (pH5.5, 6.0, 6.2, 6.5, 6.7, 7.0 and 7.4) to the wells and completely aspirating the contents [0477] 17) Dispense 50 μL per well of the TMB substrate solution into all wells of plates.

Binder | Kd (cynoNectin4-mFc [1]) [nM] | Kd (cynoNectin4-mFc [2]) [nM] | Ratio (pH 7.4/6.0) of EC50 (cyno Nectin-4 on cells) | pH inflection point [3] [pH] | koff (cynoNectin4-mFc [1]) [s⁻¹] | kon (cynoNectin4-mFc [1]) [M⁻¹ s⁻¹] | koff (cynoNectin4-mFc [2]) [s⁻¹] | kon (cynoNectin4-mFc [2]) [M⁻¹ s⁻¹]
BAP-143-wildtype (antibody, V domains shown, 150 kDa used in SPR; also called BAP143-00-00; benchmark (BM)) VH: EVQLVESGGGLVQPGGSLRLSCAASGFTFSSYNMNWVRQAPGKGLEWVSYISSSSSTIYYADSVKGRFTISRDNAKNSLSLQMNSLRDEDTAVYYCARAYYYGMDVWGQGTTVTVSS VL: DIQMTQSPSSVSASVGDRVTITCRASQGISGWLAWYQQKPGKAPKFLIYAASTLQSGVPSRFSGSGSGTDFTLTISSLQPEDFATYYCQQANSFPPTFGGGTKVEIK | 0.244 | 0.209 |  |  |  |  |  | 
BAP-143-06-33-03 (antibody, V domains shown, Used as a conjugate with a linker payload (CAB ADC)) VH: QVQLVQSGAEVKKPGASVKVSCKASGFTFSSYNMNWVRQARGQRLEWIGYISSSSSTIYYADSVKGRFTISRDNSKNTLYLQMNSLRAEDTAVYYCARAYYYGMDKWGQGTLVTVSS VL: DIQMTQSPSSVSASVGDRVTITCRASQGISGWLAWYQQKPGKAPKFLIYAASTLQSGVPSRFSGSGSGTDFTLTISSLQPEDFATYYCQQANSEPPTFGGGTKVEIK |  |  | 2.7 | 6.85 |  |  |  | 
BAP-143-06-24-16 (antibody, V domains shown, Used as a conjugate with a linker payload (CAB ADC)) VH: EVQLVQSGAEVKKPGATVKISCKVSGFTFSSYNMNWIRQSPSRGLEWLGYISSSSSTIYYADSVKGRFTISRDNSKNTLYLQMNSLRAEDTAVYYCARAYYYGDDVWGQGTLVTVSS VL: DIQMTQSPSSVSASVGDRVTITCHASQGISGWLAWYQQKPGKAPKFLIYAASTLQSGVPSRFSGSGSGTDFTLTISSLQPEDFATYYCQQANSFPPTFGGGTKVEIK | 0.126 | 0.0534 | 1.4 |  | 8.26e-05 | 655000 | 8.99e-05 | 1.68e+06

The remaining binders from weak to strong by Kd (cynoNectin4-mFc [1]), led by results:

Kd (cynoNectin4-mFc [1]) [nM] | Kd (cynoNectin4-mFc [2]) [nM] | Ratio (pH 7.4/6.0) of EC50 (cyno Nectin-4 on cells) | pH inflection point [3] [pH] | koff (cynoNectin4-mFc [1]) [s⁻¹] | kon (cynoNectin4-mFc [1]) [M⁻¹ s⁻¹] | koff (cynoNectin4-mFc [2]) [s⁻¹] | kon (cynoNectin4-mFc [2]) [M⁻¹ s⁻¹] | Binder
3.25 | 1.88 | 2 | 6.58 | 0.000781 | 240000 | 0.000859 | 457000 | BAP-143-00-01 (antibody, V domains shown, Used as a conjugate with a linker payload (CAB ADC)) VH: EVQLVESGGGLVQPGGSLRLSCAASGFTFSSYNMNWVRQAPGKGLEWVSYISSSSSTIYYADSVKGRFTISRDNAKNSLSLQMNSLRDEDTAVYYCARAYYYGMDVWGQGTTVTVSS VL: DIQMTQSPSSVSASVGDRVTITCRASQGISGWEAWYQQKPGKAPKFLIYAASTLQSGVPSRFSGSGSGTDFTLTISSLQPEDFATYYCQQANSFPPTFGGGTKVEIK
2.37 | 0.163 | 1.5 | 6.6 | 0.000175 | 73900 | 0.00026 | 1.6e+06 | BAP-143-06-33-16 (antibody, V domains shown, Used as a conjugate with a linker payload (CAB ADC)) VH: EVQLVQSGAEVKKPGATVKISCKVSGFTFSSYNMNWIRQSPSRGLEWLGYISSSSSTIYYADSVKGRFTISRDNSKNTLYLQMNSLRAEDTAVYYCARAYYYGDDVWGQGTLVTVSS VL: DIQMTQSPSSVSASVGDRVTITCRASQGISGWEAWYQQKPGKAPKFLIYAASTLQSGVPSRFSGSGSGTDFTLTISSLQPEDFATYYCQQANSFPPTFGGGTKVEIK
1.85 | 1.6 | 1.8 | 6.51 | 0.000651 | 352000 | 0.000876 | 549000 | BAP-143-07-03-12 (antibody, V domains shown, Used as a conjugate with a linker payload (CAB ADC)) VH: EVQLVESGGGLVQPGGSLRLSCAASGFTFSSYNMNWVRQAPGKGLEWVSYISSSSSTIYYADSVKGRFTISRDNAKNSLSLQMNSLRDEDTAVYYCARAYYYGMDKWGQGTTVTVSS VL: DIQMTQSPSSVSASVGDRVTITCRASQGISGWEAWYQQKPGKAPKFLIYAASTLQSGVPSRFSGSGSGTDFTLTISSLQPEDFATYYCQQANSFPPTFGGGTKVEIK
